B1: Abp1SH3 in Abp1: Abp1 with its own SH3 reintroduced by editing (control) (protein)
chain: MALEPIDYTTHSREIDAEYLKIVRGSDPDTTWLIISPNAKKEYEPESTGSSFHDFLQLFDETKVQYGLARVSPPGSDVEKIIIIGWCPDSAPLKTRASFAANFAAVANNLFKGYHVQVTARDEDDLDENELLMKISNAAGARYSIQTSSKQQGKASTPPVKKSFTPSKSPAPVSKKEPVKTPSPAPAAKISSRVNDNNDDDDWNEPELKERDFDQAPLKPNQSSYKPIGKIDLQKVIAEEKAKEDPRLVQKPTAAGSKIDPSSDIANLKNESKLKRDSEFNSFLGTTKPPSMTESSLKNDDDKVIKGFRNEKSPAQLWAERKAKQNSGNAETKAEAPKPEVPEDEPEGEPDVKDLKSKFEGLAASEKEEEEMENKFAPPPKKSEPTIISPKPFSKPQEPVKAEEAEQPKTDYKKIGNPLPGMHIEADNEEEPEENDDDWDDDEDEAAQPPLPSRNVASGAPVQKEEPEQEEIAPSLPSRNSIPAPKQEEAPEQAPEEEIEEEAEEAAPQLPSRSSAAPPPPPRRATPEKKPKENPWATAEYDYDAAEDNELTFVENDKIINIEFVDDDWWLGELEKDGSKGLFPSNYVSLGN
modifications: left off: DHFR F[1,2], C-terminal, kept | FLAG, C-terminal, kept
B2: E13E (protein, UniProt P15891 2-592, looked up)
Actin-binding protein: ALEPIDYTTHSREIDAEYLKIVRGSDPDTTWLIISPNAKKEYEPESTGSSFHDFLQLFDETKVQYGLARVSPPGSDVEKIIIIGWCPDSAPLKTRASFAANFAAVANNLFKGYHVQVTARDEDDLDENELLMKISNAAGARYSIQTSSKQQGKASTPPVKKSFTPSKSPAPVSKKEPVKTPSPAPAAKISSRVNDNNDDDDWNEPELKERDFDQAPLKPNQSSYKPIGKIDLQKVIAEEKAKEDPRLVQKPTAAGSKIDPSSDIANLKNESKLKRDSEFNSFLGTTKPPSMTESSLKNDDDKVIKGFRNEKSPAQLWAERKAKQNSGNAETKAEAPKPEVPEDEPEGEPDVKDLKSKFEGLAASEKEEEEMENKFAPPPKKSEPTIISPKPFSKPQEPVKAEEAEQPKTDYKKIGNPLPGMHIEADNEEEPEENDDDWDDDEDEAAQPPLPSRNVASGAPVQKEEPEQEEIAPSLPSRNSIPAPKQEEAPEQAPEEEIEEEAEEAAPQLPSRSSAAPPPPPRRATPEKKPKENPWATAEYDYDAAEDNELTFVENDKIINIEFVDDDWWLGELEKDGSKGLFPSNYVSLGN
modifications: synonymous codon change E13E in SH3

Key:
Format in all cases: cell-based, Saccharomyces cerevisiae
[1] = tested on: growth of ABP1 SH3-swapped strains in hygromycin B; assay: Hygromycin B resistance assay in liquid culture (Fig. S2E); details: 37 °C, 24 h, n = 3
Experimental: For the hygromycin B resistance assays in liquid cultures, the ABP1 SH3 swapped strains including the ABP1 SH3-deleted and ABP1 KO strain were grown overnight at 30 °C as precultures in synthetic complete medium with MSG. The next day, OD was measured with a TECAN Infinite F200 Pro plate reader, and the cultures were diluted to OD of 1.0 in sterile nanopure water. The different strains were further diluted at 0.1 OD by adding 25 µl of cultures to 225 µl of synthetic complete medium with MSG or with MSG and Hygromycin B 120 µg/mL in 96 wells plate (final concentration of 108 µg/mL). Cells were incubated in a TECAN Infinite M Nano plate reader at 37 °C for 24 h and OD was measured every 15 min.

[2] = tested on: Abp1 PPIs; assay: DHFR-PCA of Abp1 SH3-swapped baits (Fig. 2B-D, S2C, S2F); details: DHFR-PCA, quadruplicate
Summary of the method: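 Interactions were scored by DHFR protein-fragment complementation. DHFR F[1,2]-tagged Abp1 strains, whose SH3 was swapped for yeast or human ortholog domains, were crossed on YPD at 30 °C for 48 h with a 1536-format array of 575 prey-DHFR F[3] strains and 40 negatives, giving four replicates per pair. PCA selection lasted 4 days after double diploid selection.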

[3] = tested on: Lsb3; assay: Deep mutational scanning of Abp1 SH3, Abp1-Lsb3 DHFR-PCA (DMS score); details: Abp1-Lsb3 DHFR-PCA; WT = 0; Fig. S3C-D
Summary of the method: (§1)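 Each SH3 position is mutated to all possible codons within endogenous ABP1; the pooled strains are crossed to DHFR F[3]-tagged partners, diploids are enriched in NAT/HPH media, and two 72 h complementation selections at 30 °C follow, with Illumina counts of the locus yielding the score.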

[4] = tested on: Abp1 (1xFLAG); assay: Western blot expression level of Abp1 SH3 mutants (Fig. S3C-D)
Experimental: Precultures of yeast cells expressing baits fused with the DHFR F[1,2]-FLAG were grown overnight at 30 °C with agitation in synthetic complete medium. The next day, cells were expanded in synthetic complete medium to reach their exponential phase (OD600 of around 1.0), pelleted, and frozen at −80 °C. The equivalent of fifty OD600 of cells was resuspended in ice-cold yeast lysis buffer (10 mM Tris-HCl pH 7.4, 150 mM NaCl, 0.5 mM EDTA (Millipore Sigma), 1% Triton X-100 (Millipore Sigma), and one cOmplete Mini Protease Inhibitor Cocktail (Millipore Sigma) per 10 mL) with […] glass beads (Millipore Sigma) and disrupted at 4 °C by 10 cycles of 2 min vortexing and 2 min cooldown. The equivalent of […] of lysed cells was used for the immunoprecipitation of the bait proteins using FLAG-M2 agarose beads (Millipore Sigma). The beads were incubated with the cell lysates for 120 min at 4 °C with a slow rotation, followed by three washes with the yeast lysis buffer.
Protein extracts and affinity-purified baits from yeast and human lysed cells were migrated on 10% polyacrylamide gels. The separated proteins were then transferred to nitrocellulose membranes. Validation of correct protein loading was done with ponceau staining of the membranes. Before the primary antibody incubations, membranes were blocked in 5% milk. Protein signals were detected on an Amersham Imager 600RGB (GE Healthcare) following the incubation of the membranes with the appropriate HRP-conjugated secondary antibodies and the Clarity Western ECL Substrate (Bio-Rad). The antibodies used in this study are M2-HRP (A8592, Sigma, 1/50,000), rabbit anti-FLAG (F7425, Sigma, 1/1000), PAK (SC-881, Santa Cruz, 1/200), p130cas/BCAR1 (SC-860, Santa Cruz, 1/200), actin (Cell Signaling Technology, 1/2000), anti-mouse HRP (Cell Signaling Technology, 1/10,000) and anti-rabbit HRP (Cell Signaling Technology, 1/10,000). The quantification of the WB signals was performed with the Amersham Imager 600 analysis software (GE Healthcare). […]
C, WB comparing expression levels of selected Abp1 SH3 mutants with WT Abp1. An asterisk represents a stop codon, which inhibits translation of the 1xFLAG epitope. D, Quantification of the relative level of expression of Abp1 SH3 mutants by WB as in C, (log2 of Abp1 SH3 mutant/Abp1 WT ratio, WB relative level of expression of 0 for WT Abp1) compared to their DMS scores (Hua2 (left): Pearson’s r = -0.34, p-value = 0.46, Lsb3 […]
(right): Pearson’s r = -0.81, p-value = 0.03). […]
Most […]
interface residues sensitive to mutations, such as Y7, E13, E16, V3 1, D32, D34, L48 and Y53, specifically affect Hua2 PPI. See also Supplementary Table 4.

[5] = tested on: Hua2; assay: Deep mutational scanning of Abp1 SH3, Abp1-Hua2 DHFR-PCA (DMS score)
Summary of the method: as §1

[6] = tested on: Hua2; assay: Low-throughput liquid DHFR-PCA of selected Abp1 SH3 mutants (Fig. S3F); details: average
Experimental: Liquid DHFR-PCA low-throughput experiments were performed to validate the PPIs identified as affected by the SH3 domain deletions in the high-throughput solid DHFR-PCA screen (256 PPIs weaker or lost and 116 PPIs stronger or gained following domain deletions). Mating and the diploid selection were performed as described for the large-scale experiment, with the exception that the plates were in 384 formats. Following the second diploid selection, diploid cells were inoculated in a 96 v-shaped well plate using a robotically manipulated 96 pin tool in a synthetic complete medium with MSG at pH 6.0 with NAT and HPH. After 48 h of growth, optical density (OD) was read using a TECAN Infinite F200 Pro, and dilutions to 1 OD in sterile nanopure water were prepared. Cells were then diluted to 0.1 OD by combining 25 µl of cell suspension at OD = 1 and 225 µl of PCA selection media without agar in a 96-wells plate. Plates were incubated at 30 °C in a TECAN Infinite M Nano and OD was monitored each 15 min for 72 h. […]
Selected non-conserved positions (E6 , E13, N15 and N27) sensitivities to mutations for the Abp1-Hua2 PPI were tested in a low -throughput liquid DHFR -PCA assay. The growth of the mutants in the low -throughput experiment (average of four replicates of the total OD for each growth curve, y axis ) is compared to the mutants DMS score (x axis). […]

Molecule | Hygromycin phenotype [1] | Kendall's τ of PPI profile with WT Abp1 [2] | DMS score Lsb3 [3] | Ratio Mutant/WT Flag ([4]; Western blot Flag signal of mutant relative to WT) | Flag (2 bands) ([4]; Western blot, Flag signal, 2 bands) | DMS score Hua2 ([5]; Abp1-Hua2 DHFR-PCA, WT = 0, Fig. S3C-D) | DMS Score ([5]; condition HUA2_MTX2, amino acid mutation format, Fig. S3F) | ave_au (DMS validation) [6] [au]
B1 | fully reproduces WT sensitivity | 0.93 | – | – | – | – | – | –
B2 | – | – | -0.3311 | 0.6362 | 23257 | -0.2784 | 1.334 | 78.0323

From paper PMC7954794, “Protein context shapes the specificity of SH3 domain-mediated interactions in vivo” (Nature Communications, 2021)
